Data: patent publication US7888089B2, “eNOS mutations useful for gene therapy and therapeutic screening” (Yale University, priority 1999, dated 2011)

Target: T1, Akt (Homo sapiens, UniProt P31749)
T1 construct: host or cells: baculovirus-infected SF9 cells (Akt); peptides synthesized at the W. M. Keck Biotechnology Resource Center
Test: In vitro phosphorylation of eNOS peptides (1174-1194) by recombinant Akt
Format: biochemical
Conditions: n=5
Method: In studies identifying the labeled eNOS peptide, immunoprecipitated Akt was incubated with recombinant eNOS as above. The sample was run on SDS-PAGE, and the eNOS band digested in gel, and the resultant tryptic fragments purified by RP-HPLC. Peptide mass and ^32P incorporation were monitored and the prominent labeled peak further analyzed by mass spectrometry. In other experiments, peptides corresponding to the potential Akt phosphorylation site were synthesized, purified by HPLC and verified by mass spectrometry (W. M. Keck Biotechnology Resource Center, Yale University School of Medicine). The wild-type peptide was 1174[…]1194 (SEQ ID NO:2) and the mutant peptide was identical except S1179 was changed to an alanine. In vitro kinase reactions were essentially as described above incubating peptides (25 mg) with recombinant Akt (1 mg). Reactions were then spotted onto phosphocellulose filters and the amount of phosphate incorporated measured by Cerenkov counting.

T1 sequence (P31749 whole entry): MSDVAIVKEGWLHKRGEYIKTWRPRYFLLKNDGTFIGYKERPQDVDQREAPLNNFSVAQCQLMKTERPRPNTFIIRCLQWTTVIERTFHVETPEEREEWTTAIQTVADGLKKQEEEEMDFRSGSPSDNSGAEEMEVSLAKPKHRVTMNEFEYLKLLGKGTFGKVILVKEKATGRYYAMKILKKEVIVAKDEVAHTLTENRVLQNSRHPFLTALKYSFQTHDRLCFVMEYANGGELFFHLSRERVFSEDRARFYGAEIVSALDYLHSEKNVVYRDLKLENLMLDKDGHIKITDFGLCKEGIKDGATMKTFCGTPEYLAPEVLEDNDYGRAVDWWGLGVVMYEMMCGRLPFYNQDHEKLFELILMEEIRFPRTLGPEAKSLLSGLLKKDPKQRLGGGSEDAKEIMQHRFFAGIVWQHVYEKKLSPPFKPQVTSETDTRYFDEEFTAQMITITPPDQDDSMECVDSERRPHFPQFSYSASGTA

## 1174RIRTQSFSLQERHLRGAVPWA1194 (listed as Bos sp.) [wild-type peptide]
  phosphate incorporated into peptide: 24.6±3.7 nmol phosphate/mg
